According to patent US20020082410, “Insulin promoter factor, and uses related thereto” (Curis, Inc., published 2002):

Biological target: Ipf1 (IPF1, Pdx1) (Mus musculus, UniProt P52946 SEQ:1-284)
Test: EMSA; same mobility as IPF1 from betaTC1 nuclear extract; competition with wild-type and mutant P1 sites showed same specificity as endogenous IPF1
Details: tags: none; rabbit reticulocyte lysate from full-length cDNA in pGEM3
Experimental: RNA prepared from the IPF1 cDNA template was translated in vitro and the DNA binding specificity of the in vitro translation product was determined using an electrophoretic mobility shift assay (EMSA) and the insulin promoter PI site as a probe (Ohisson et al., (1991) Mol Endocrin 5:897-904; see also Materials and Methods below). The in vitro translation product bound to the P1 element and migrated to the same relative position in the gel as IPF1 from the βTC1 nuclear extract.

Sequence of Ipf1 (IPF1, Pdx1) (P52946 other isoform, or with tags, fused parts or gaps): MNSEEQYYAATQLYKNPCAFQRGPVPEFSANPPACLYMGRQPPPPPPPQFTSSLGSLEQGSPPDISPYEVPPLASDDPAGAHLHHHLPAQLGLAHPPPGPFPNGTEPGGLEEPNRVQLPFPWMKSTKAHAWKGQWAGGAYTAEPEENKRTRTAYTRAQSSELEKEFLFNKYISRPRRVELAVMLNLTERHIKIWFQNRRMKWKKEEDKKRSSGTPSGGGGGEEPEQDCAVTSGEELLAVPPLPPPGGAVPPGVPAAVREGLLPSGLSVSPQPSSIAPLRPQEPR

B1: P1 wild-type insulin promoter element (dsDNA)
DNA 1: GCCCTTAATGGGCCAAACGGCA
DNA 2: TGCCGTTTGGCCCATTAAGGGC
Question: Does B1 bind?
Answer: binds
